From patent publication US20240360228A1 (BIOLEGEND, published 2024)

Legend:
human CCR8 [1] = molecular target: T1, human CCR8 (human, UniProt P51685 1-355); test: flow blocking, PBMC CCR8+CD3+; competitor PE-AB5
T1 construct: Native CCR8 on human PBMC (CCR8+ CD3+ or CCR8+ CD4+ lymphocytes); also called chemokine (C-C motif) receptor 8
Protocol: (§1) For blocking studies, 100 μL of the cell suspension were incubated with 10 μg purified isotype control, AB1, AB2, AB3, AB4, AB5, AB8, AB9, AB10, AB11, AB12, AB13, AB14, AB15, and Commercial ABI antibodies, or isotype control, as blocking agents.
(§2) After incubation with the blocking agent, the cells were incubated with 0.25 μg of the indicated PE-conjugated antibody plus anti-human CD4 APC or anti-human CD3 for another 15 minutes in the dark and then washed 2 times with Cell Staining Buffer, and acquired in a FACSCanto II flow cytometer (BD Biosciences); the data was analyzed using FCS Express (De Novo Software); MFI correspond to the CCR8+ CD4+ lymphocytes or CCR8+ CD3+ lymphocytes.
(§3) Percentage original MFI was calculated by dividing the MFI of samples blocked with AB1, AB2, AB3, AB4, AB5, AB6, AB7, AB8, AB9, AB10, AB11, AB12, AB13, AB14, AB15, and Commercial ABI antibodies, by the MFI of samples blocked with the corresponding isotype control. This value was subtracted from 100 to get a blocking percentage. The formula is shown below: […]

human CCR8 [2] = molecular target: T1, human CCR8; test: flow blocking, PBMC CCR8+CD3+; competitor PE-AB6
Protocol: as §1, §2, §3

human CCR8 [3] = molecular target: T1, human CCR8; test: flow blocking, PBMC CCR8+CD3+; competitor PE-AB7
Protocol: as §1, §2, §3

human CCR8 [4] = molecular target: T1, human CCR8; test: flow blocking, PBMC CCR8+CD3+; competitor PE-AB8
Protocol: as §1, §2, §3

human CCR8 [5] = molecular target: T1, human CCR8; test: flow blocking, PBMC CCR8+CD4+; competitor PE-AB1
Protocol: as §1, §2, §3

human CCR8 [6] = molecular target: T1, human CCR8; test: flow blocking, PBMC CCR8+CD4+; competitor PE-AB2
Protocol: as §1, §2, §3

human CCR8 [7] = molecular target: T1, human CCR8; test: flow blocking, PBMC CCR8+CD4+; competitor PE-AB3
Protocol: as §1, §2, §3

human CCR8 [8] = molecular target: T1, human CCR8; test: flow blocking, PBMC CCR8+CD4+; competitor PE-AB4
Protocol: as §1, §2, §3

human CCR8 [9] = molecular target: T1, human CCR8; test: flow blocking, PBMC CCR8+CD4+; competitor PE-AB5
Protocol: as §1, §2, §3

human CCR8 [10] = molecular target: T1, human CCR8; test: flow blocking, PBMC CCR8+CD4+; competitor PE-AB6
Protocol: as §1, §2

human CCR8 [11] = molecular target: T1, human CCR8; test: flow blocking, PBMC CCR8+CD3+; competitor PE-433H
Protocol: as §1, §2, §3

human CCR8 [12] = molecular target: T1, human CCR8; test: flow blocking, PBMC CCR8+CD3+; competitor PE-AB10
Protocol: as §1, §2, §3

human CCR8 [13] = molecular target: T1, human CCR8; test: flow blocking, PBMC CCR8+CD3+; competitor PE-AB11
Protocol: as §1, §2, §3

human CCR8 [14] = molecular target: T1, human CCR8; test: flow blocking, PBMC CCR8+CD3+; competitor PE-AB12
Protocol: as §1, §2, §3

human CCR8 [15] = molecular target: T1, human CCR8; test: flow blocking, PBMC CCR8+CD3+; competitor PE-AB13
Protocol: as §1, §2, §3

human CCR8 [16] = molecular target: T1, human CCR8; test: flow blocking, PBMC CCR8+CD3+; competitor PE-AB14
Protocol: as §1, §2, §3

human CCR8 [17] = molecular target: T1, human CCR8; test: flow blocking, PBMC CCR8+CD3+; competitor PE-AB15
Protocol: as §1, §2, §3

human CCR8 [18] = molecular target: T1, human CCR8; test: flow blocking, PBMC CCR8+CD4+; competitor PE-433H
Protocol: as §1, §2

human CCR8 [19] = molecular target: T1, human CCR8; test: flow blocking, PBMC CCR8+CD4+; competitor PE-AB10
Protocol: as §1, §2, §3

human CCR8 [20] = molecular target: T1, human CCR8; test: flow blocking, PBMC CCR8+CD4+; competitor PE-AB11
Protocol: as §1, §2, §3

human CCR8 [21] = molecular target: T1, human CCR8; test: flow blocking, PBMC CCR8+CD4+; competitor PE-AB12
Protocol: as §1, §2, §3

human CCR8 [22] = molecular target: T1, human CCR8; test: flow blocking, PBMC CCR8+CD4+; competitor PE-AB13
Protocol: as §1, §2

human CCR8 [23] = molecular target: T1, human CCR8; test: flow blocking, PBMC CCR8+CD4+; competitor PE-AB14
Protocol: as §1, §2

human CCR8 [24] = molecular target: T1, human CCR8; test: flow blocking, PBMC CCR8+CD4+; competitor PE-AB15
Protocol: as §1, §2, §3

human CCR8 [25] = molecular target: T1, human CCR8; test: flow blocking, PBMC CCR8+CD3+; competitor PE-L263G8
Protocol: as §1, §2, §3

T1 sequence (P51685 whole entry): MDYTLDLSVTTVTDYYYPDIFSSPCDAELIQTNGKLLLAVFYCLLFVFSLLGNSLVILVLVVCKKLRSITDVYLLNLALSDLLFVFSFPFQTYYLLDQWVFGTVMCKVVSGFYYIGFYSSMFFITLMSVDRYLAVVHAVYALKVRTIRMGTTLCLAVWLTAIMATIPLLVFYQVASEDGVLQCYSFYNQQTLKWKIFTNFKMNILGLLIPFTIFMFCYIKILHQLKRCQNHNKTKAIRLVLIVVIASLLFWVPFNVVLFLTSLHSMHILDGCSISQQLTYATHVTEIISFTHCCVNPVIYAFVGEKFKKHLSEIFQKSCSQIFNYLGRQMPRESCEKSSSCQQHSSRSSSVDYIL

% Blocking (human CCR8 [1]): -8.37%
MFI (human CCR8 [1]): 1070
% Blocking (human CCR8 [2]): -27%
MFI (human CCR8 [2]): 1170
% Blocking (human CCR8 [3]): 52.1%
MFI (human CCR8 [3]): 559
% Blocking (human CCR8 [4]): 51.6%
MFI (human CCR8 [4]): 575
% Blocking (human CCR8 [5]): -47.1%
% Positive cells (human CCR8 [5]): 2.28%
% Blocking (human CCR8 [6]): -40.2%
% Positive cells (human CCR8 [6]): 2.3%
% Blocking (human CCR8 [7]): -50.9%
% Positive cells (human CCR8 [7]): 2.58%
% Blocking (human CCR8 [8]): -38.8%
% Positive cells (human CCR8 [8]): 2.47%
% Blocking (human CCR8 [9]): -17.8%
% Positive cells (human CCR8 [9]): 2.38%
% Blocking (human CCR8 [10]): -7.92%
% Positive cells (human CCR8 [10]): 2.18%
% Blocking (human CCR8 [11]): 32.1%
MFI (human CCR8 [11]): 602
% Blocking (human CCR8 [12]): 30.7%
MFI (human CCR8 [12]): 552
% Blocking (human CCR8 [13]): 55.2%
MFI (human CCR8 [13]): 416
% Blocking (human CCR8 [14]): 47.6%
MFI (human CCR8 [14]): 536
% Blocking (human CCR8 [15]): 43.6%
MFI (human CCR8 [15]): 499
% Blocking (human CCR8 [16]): 38.9%
MFI (human CCR8 [16]): 528
% Blocking (human CCR8 [17]): 43.3%
MFI (human CCR8 [17]): 487
% Blocking (human CCR8 [18]): 28.4%
% Positive cells (human CCR8 [18]): 1.26%
% Blocking (human CCR8 [19]): 93.2%
% Positive cells (human CCR8 [19]): 0.1%
% Blocking (human CCR8 [20]): 98.5%
% Positive cells (human CCR8 [20]): 0.03%
% Blocking (human CCR8 [21]): 98.9%
% Positive cells (human CCR8 [21]): 0.02%
% Blocking (human CCR8 [22]): 97.5%
% Positive cells (human CCR8 [22]): 0.05%
% Blocking (human CCR8 [23]): 89.2%
% Positive cells (human CCR8 [23]): 0.14%
% Blocking (human CCR8 [24]): 88.4%
% Positive cells (human CCR8 [24]): 0.15%
% Blocking (human CCR8 [25]): 10.2%
MFI (human CCR8 [25]): 605
B1: AB10 (antibody, V domains shown)
VH: EVQLVETGGGLVQPKGSLKLSCAVSGFTFKTNAMNWVRQAPGKGLEWVARIRSKSNKYATYYADSVKDRFTISRDDSQSMLYLQMNNLKTEDTAMYYCVRGSEMGYYYAMDYWGQGTSVTVSS
VL: DIVMTQAAPSVPVTPGESVSISCRSSKSLLHSNGNTYLYWFLQRPGQSPQLLIYRMSNLASGVPDRFSGSGSGTAFTLRISRVEAEDVGVYYCMQHLEYPFTFGGGTKLEIK
notes: Hybridoma monoclonal; also called antibody 10; clone 10
